Source: ChEMBL document CHEMBL1135258, “Substrate spectrum of tyrocidine thioesterase probed with randomized peptide N-acetylcysteamine thioesters” (Bioorg Med Chem Lett, 2002)
Where “and” joins values, the source holds several entries; their conditions need not be identical. Equal entries are not always repeated.

What was measured:
Settings in all cases: Brevibacillus brevis
[1] = substrate: CC(=O)NCCSC(=O)[C@H](CC(C)C)NC(=O)[C@H](CCCN)NC(=O)[C@@H](NC(=O)[C@H](Cc1ccc(O)cc1)NC(=O)[C@@H](NC(=O)[C@H](CC(N)=O)NC(=O)[C@@H](Cc1ccccc1)NC(=O)[C@H](Cc1ccccc1)NC(=O)[C@@H]1CCCN1C(=O)[C@H](N)Cc1ccccc1)C(C)C)C(C)C; experiment: (§1) Apparent kinetic constant (Km) determined for tyrocidine thioesterase amplified from Bacillus brevis (ATCC8185)
[2] = substrate: CC(=O)NCCSC(=O)[C@H](CC(C)C)NC(=O)[C@H](CCCN)NC(=O)[C@@H](NC(=O)[C@H](Cc1ccc(O)cc1)NC(=O)[C@H](CC(C)C)NC(=O)[C@H](CC(N)=O)NC(=O)[C@@H](Cc1ccccc1)NC(=O)[C@H](Cc1ccccc1)NC(=O)[C@@H]1CCCN1C(=O)[C@H](N)Cc1ccccc1)C(C)C; experiment: as §1
[3] = substrate: CC(=O)NCCSC(=O)[C@H](CC(C)C)NC(=O)[C@H](CCCN)NC(=O)[C@@H](NC(=O)[C@H](Cc1ccc(O)cc1)NC(=O)[C@H](CC(N)=O)NC(=O)[C@H](CC(N)=O)NC(=O)[C@@H](Cc1ccccc1)NC(=O)[C@H](Cc1ccccc1)NC(=O)[C@@H]1CCCN1C(=O)[C@H](N)Cc1ccccc1)C(C)C; experiment: as §1
[4] = substrate: CC(=O)NCCSC(=O)[C@H](CC(C)C)NC(=O)[C@H](CCCN)NC(=O)[C@@H](NC(=O)[C@H](Cc1ccc(O)cc1)NC(=O)[C@H](CCC(N)=O)NC(=O)[C@H](CC(C)C)NC(=O)[C@@H](Cc1ccccc1)NC(=O)[C@H](Cc1ccccc1)NC(=O)[C@@H]1CCCN1C(=O)[C@H](N)Cc1ccccc1)C(C)C; experiment: as §1
[5] = substrate: CC(=O)NCCSC(=O)[C@H](CC(C)C)NC(=O)[C@H](CCCN)NC(=O)[C@@H](NC(=O)[C@H](Cc1ccc(O)cc1)NC(=O)[C@H](CCC(N)=O)NC(=O)[C@H](CC(N)=O)NC(=O)CNC(=O)[C@H](Cc1ccccc1)NC(=O)[C@@H]1CCCN1C(=O)[C@H](N)Cc1ccccc1)C(C)C; experiment: as §1
[6] = substrate: CC(=O)NCCSC(=O)[C@H](CC(C)C)NC(=O)[C@H](CCCN)NC(=O)[C@@H](NC(=O)[C@H](Cc1ccc(O)cc1)NC(=O)[C@H](CCC(N)=O)NC(=O)[C@H](CC(N)=O)NC(=O)[C@@H](Cc1ccccc1)NC(=O)[C@H](Cc1ccccc1)NC(=O)[C@@H]1CCCN1C(=O)[C@H](N)Cc1ccccc1)C(C)C; experiment: as §1
[7] = substrate: CC(=O)NCCSC(=O)[C@H](CC(C)C)NC(=O)[C@H](CCCN)NC(=O)[C@@H](NC(=O)[C@H](Cc1ccc(O)cc1)NC(=O)[C@H](CCC(N)=O)NC(=O)[C@H](CC(N)=O)NC(=O)[C@@H](NC(=O)[C@H](Cc1ccccc1)NC(=O)[C@@H]1CCCN1C(=O)[C@H](N)Cc1ccccc1)C(C)C)C(C)C; experiment: as §1
[8] = substrate: CC(=O)NCCSC(=O)[C@H](CC(C)C)NC(=O)[C@H](CCCN)NC(=O)[C@@H](NC(=O)[C@H](Cc1ccc(O)cc1)NC(=O)[C@H](CCC(N)=O)NC(=O)[C@H](CC(N)=O)NC(=O)[C@@H]1CCCN1C(=O)[C@H](Cc1ccccc1)NC(=O)[C@@H]1CCCN1C(=O)[C@H](N)Cc1ccccc1)C(C)C; experiment: as §1
[9] = substrate: CC(=O)NCCSC(=O)[C@H](CC(C)C)NC(=O)[C@H](CCCN)NC(=O)[C@@H](NC(=O)[C@H](Cc1ccc(O)cc1)NC(=O)[C@H](CCC(N)=O)NC(=O)[C@H](CC(N)=O)NC(=O)[C@H](CC(=O)O)NC(=O)[C@H](Cc1ccccc1)NC(=O)[C@@H]1CCCN1C(=O)[C@H](N)Cc1ccccc1)C(C)C; experiment: as §1
[10] = substrate: CC(=O)NCCSC(=O)[C@H](CC(C)C)NC(=O)[C@H](CCCN)NC(=O)[C@@H](NC(=O)[C@H](Cc1ccc(O)cc1)NC(=O)[C@H](CCC(N)=O)NC(=O)[C@H](CC(N)=O)NC(=O)[C@H](CC(C)C)NC(=O)[C@H](Cc1ccccc1)NC(=O)[C@@H]1CCCN1C(=O)[C@H](N)Cc1ccccc1)C(C)C; experiment: as §1
[11] = substrate: CC(=O)NCCSC(=O)[C@H](CC(C)C)NC(=O)[C@H](CCCN)NC(=O)[C@@H](NC(=O)[C@H](Cc1ccc(O)cc1)NC(=O)[C@H](CCC(N)=O)NC(=O)[C@H](CC(N)=O)NC(=O)[C@H](CCC(=O)O)NC(=O)[C@H](Cc1ccccc1)NC(=O)[C@@H]1CCCN1C(=O)[C@H](N)Cc1ccccc1)C(C)C; experiment: as §1
[12] = substrate: CC(=O)NCCSC(=O)[C@H](CC(C)C)NC(=O)[C@H](CCCN)NC(=O)[C@@H](NC(=O)[C@H](Cc1ccc(O)cc1)NC(=O)[C@H](CCC(N)=O)NC(=O)[C@H](CC(N)=O)NC(=O)[C@H](CS)NC(=O)[C@H](Cc1ccccc1)NC(=O)[C@@H]1CCCN1C(=O)[C@H](N)Cc1ccccc1)C(C)C; experiment: as §1
[13] = substrate: CC(=O)NCCSC(=O)[C@H](CC(C)C)NC(=O)[C@H](CCCN)NC(=O)[C@H](CC(N)=O)NC(=O)[C@H](Cc1ccc(O)cc1)NC(=O)[C@H](CCC(N)=O)NC(=O)[C@H](CC(N)=O)NC(=O)[C@@H](Cc1ccccc1)NC(=O)[C@H](Cc1ccccc1)NC(=O)[C@@H]1CCCN1C(=O)[C@H](N)Cc1ccccc1; experiment: as §1
[14] = substrate: CC(=O)NCCSC(=O)[C@H](CC(C)C)NC(=O)[C@H](CCCN)NC(=O)[C@H](CCCN=C(N)N)NC(=O)[C@H](Cc1ccc(O)cc1)NC(=O)[C@H](CCC(N)=O)NC(=O)[C@H](CC(N)=O)NC(=O)[C@@H](Cc1ccccc1)NC(=O)[C@H](Cc1ccccc1)NC(=O)[C@@H]1CCCN1C(=O)[C@H](N)Cc1ccccc1; experiment: as §1
[15] = substrate: CC[C@@H](C)[C@H](NC(=O)[C@H](CC(N)=O)NC(=O)[C@@H](Cc1ccccc1)NC(=O)[C@H](Cc1ccccc1)NC(=O)[C@@H]1CCCN1C(=O)[C@H](N)Cc1ccccc1)C(=O)N[C@@H](Cc1ccc(O)cc1)C(=O)N[C@H](C(=O)N[C@@H](CCCN)C(=O)N[C@@H](CC(C)C)C(=O)SCCNC(C)=O)C(C)C; experiment: as §1

B1: Thioesterase GrsT homolog tycF (Brevibacillus brevis), O30412 (protein)
chain: MKLFCFPYAGGLPGIYYSWKSRLPPTFLEIDAFEVRPHIPQPNRDVFLPTSFYELLEDVCDRITPALTETPFAFFGHSMGGLVAFELTRKLMQKGAPLPQHLFLSASRAPHAYGKLAKTYNLPHDEFVEALRKLGGTPDDVLENQELLELFLPILRADFQAVQTYEMNPDLPRQVPVNMTVLYGTEDTIALEDIWAWRDYCQGACQFFPVSGGHFFIHHQTSPILEIIQNVLKEEKTVAIHSSF
Km [1]: 54 µM
Km [2]: 135 µM
Km [3]: 112 µM
Km [4]: 42 µM
Km [5]: 22 µM
Km [6]: 13 µM and 9.2 µM
Km [7]: 145 µM
Km [8]: 132 µM
Km [9]: 238 µM
Km [10]: 29 µM
Km [11]: 12 µM
Km [12]: 27 µM
Km [13]: 55 µM
Km [14]: 33 µM
Km [15]: 82 µM
